The target in this test is AHb1 (Arabidopsis thaliana, UniProt O24520). The experiment in a line: size exclusion chromatography.

B1: AHb1 (protein)
chain: MESEGKIVFTEEQEALVVKSWSVMKKNSAELGLKLFIKIFEIAPTTKKMFSFLRDSPIPAEQNPKLKPHAMSVFVMCCESAVQLRKTGKVTVRETTLKRLGASHSKYGVVDEHFEVAKYALLETIKEAVPEMWSPEMKVAWGQAYDHLVAAIKAEMNLSN
modifications: ferrous-oxy heme (O2-bound)
B1 gave a dissociation constant (Kd) of 1.2 µM.

B2: AHb1 (protein)
chain: B1 chain
modifications: ferric heme
For the molecule B2, the Kd stood at 11 µM.

The values above are taken from article PMC7761212 (2020).
